T1: recombinant FAP protein (BioLegend), biotinylated (Homo sapiens (Human), UniProt Q12884 26-760, Biotinylated (sites not given) for loading on streptavidin sensors. Any vendor tag is not stated in the passages shown.)
T1 construct: Loaded on streptavidin sensors for BLI; also called biotinylated FAP
T1 sequence: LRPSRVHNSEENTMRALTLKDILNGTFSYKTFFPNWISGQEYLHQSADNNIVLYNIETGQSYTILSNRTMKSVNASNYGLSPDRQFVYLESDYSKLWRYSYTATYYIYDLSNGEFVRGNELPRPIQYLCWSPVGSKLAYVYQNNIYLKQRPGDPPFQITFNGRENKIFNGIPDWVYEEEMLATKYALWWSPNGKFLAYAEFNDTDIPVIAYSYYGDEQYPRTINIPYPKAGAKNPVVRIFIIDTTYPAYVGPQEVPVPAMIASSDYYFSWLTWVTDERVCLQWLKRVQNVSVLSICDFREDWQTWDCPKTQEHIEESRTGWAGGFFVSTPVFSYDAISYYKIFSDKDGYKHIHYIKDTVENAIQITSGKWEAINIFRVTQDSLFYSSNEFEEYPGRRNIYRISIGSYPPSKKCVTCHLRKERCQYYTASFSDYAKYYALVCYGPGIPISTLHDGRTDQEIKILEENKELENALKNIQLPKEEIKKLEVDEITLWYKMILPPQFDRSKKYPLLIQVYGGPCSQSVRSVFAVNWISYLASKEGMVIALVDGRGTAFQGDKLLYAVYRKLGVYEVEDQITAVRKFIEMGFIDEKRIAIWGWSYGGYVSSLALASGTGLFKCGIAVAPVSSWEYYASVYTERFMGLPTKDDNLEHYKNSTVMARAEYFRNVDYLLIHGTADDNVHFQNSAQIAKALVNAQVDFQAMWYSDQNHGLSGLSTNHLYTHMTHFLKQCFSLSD

B1: P-1901: 2PE14 (VHH)
VHH: QVQLQESGGGLVQPGGSLRLSCAASGSTFSINAVAWYRQAPGKRRELVAGISGGGVTNYPDSVKGRFTISRDNAKNTVYLQMSSLKPEDTAVYYCNLWPPRASPGGRVYWGQGTQVTVSS
notes: also called pET28 PelB-2PE14
B2: P-1919: 2PE14_N32T (VHH)
VHH: QVQLQESGGGLVQPGGSLRLSCAASGSTFSITAVAWYRQAPGKRRELVAGISGGGVTNYPDSVKGRFTISRDNAKNTVYLQMSSLKPEDTAVYYCNLWPPRASPGGRVYWGQGTQVTVSS
notes: also called pET28 PelB-2PE14_N32T
B3: P-1904: 2PE14_opt3 (Q1D_Q5V_A74S_S82N_K83R_Q108L) (VHH)
VHH: DVQLVESGGGLVQPGGSLRLSCAASGSTFSINAVAWYRQAPGKRRELVAGISGGGVTNYPDSVKGRFTISRDNSKNTVYLQMNSLRPEDTAVYYCNLWPPRASPGGRVYWGQGTLVTVSS
notes: also called pET28 PelB-2PE14_opt3 (idem + S82N)
B4: P-1914: 2PE14_N32L (VHH)
VHH: QVQLQESGGGLVQPGGSLRLSCAASGSTFSILAVAWYRQAPGKRRELVAGISGGGVTNYPDSVKGRFTISRDNAKNTVYLQMSSLKPEDTAVYYCNLWPPRASPGGRVYWGQGTQVTVSS
notes: also called pET28 PelB-2PE14_N32L
B5: P-1902: 2PE14_opt1 (Q1D_Q5V_A74S_K83R_Q108L) (VHH)
VHH: DVQLVESGGGLVQPGGSLRLSCAASGSTFSINAVAWYRQAPGKRRELVAGISGGGVTNYPDSVKGRFTISRDNSKNTVYLQMSSLRPEDTAVYYCNLWPPRASPGGRVYWGQGTLVTVSS
notes: also called pET28 PelB-2PE14_opt1
B6: P-1922: 2PE14_N32Y (VHH)
VHH: QVQLQESGGGLVQPGGSLRLSCAASGSTFSIYAVAWYRQAPGKRRELVAGISGGGVTNYPDSVKGRFTISRDNAKNTVYLQMSSLKPEDTAVYYCNLWPPRASPGGRVYWGQGTQVTVSS
notes: also called pET28 PelB-2PE14_N32Y
B7: P-1924: 3PE42_M31A (VHH)
VHH: QVQLQESGGGLVQPGESLRLSCAVSGSTSSANAMAWYRQAPGKRRELVAGISGGGATNYPDSVKGRFTISRDNAKNTVYLQMSSLKPEDTAVYYCNLWPPRASPGGGVYWGQGTQVTVSS
notes: also called pET28 PelB-3PE42_M42A
B8: P-1912: 2PE14_N32I (VHH)
VHH: QVQLQESGGGLVQPGGSLRLSCAASGSTFSIIAVAWYRQAPGKRRELVAGISGGGVTNYPDSVKGRFTISRDNAKNTVYLQMSSLKPEDTAVYYCNLWPPRASPGGRVYWGQGTQVTVSS
notes: also called pET28 PelB-2PE14_N32I
B9: P-1925: 3PE42_M31D (VHH)
VHH: QVQLQESGGGLVQPGESLRLSCAVSGSTSSDNAMAWYRQAPGKRRELVAGISGGGATNYPDSVKGRFTISRDNAKNTVYLQMSSLKPEDTAVYYCNLWPPRASPGGGVYWGQGTQVTVSS
notes: also called pET28 PelB-3PE42_M42D
B10: P-1920: 2PE14_N32V (VHH)
VHH: QVQLQESGGGLVQPGGSLRLSCAASGSTFSIVAVAWYRQAPGKRRELVAGISGGGVTNYPDSVKGRFTISRDNAKNTVYLQMSSLKPEDTAVYYCNLWPPRASPGGRVYWGQGTQVTVSS
notes: also called pET28 PelB-2PE14_N32V
B11: P-1921: 2PE14_N32W (VHH)
VHH: QVQLQESGGGLVQPGGSLRLSCAASGSTFSIWAVAWYRQAPGKRRELVAGISGGGVTNYPDSVKGRFTISRDNAKNTVYLQMSSLKPEDTAVYYCNLWPPRASPGGRVYWGQGTQVTVSS
notes: also called pET28 PelB-2PE14_N32W
B12: P-1917: 2PE14_N32R (VHH)
VHH: QVQLQESGGGLVQPGGSLRLSCAASGSTFSIRAVAWYRQAPGKRRELVAGISGGGVTNYPDSVKGRFTISRDNAKNTVYLQMSSLKPEDTAVYYCNLWPPRASPGGRVYWGQGTQVTVSS
notes: also called pET28 PelB-2PE14_N32R
B13: P-1907: 2PE14_N32D (VHH)
VHH: QVQLQESGGGLVQPGGSLRLSCAASGSTFSIDAVAWYRQAPGKRRELVAGISGGGVTNYPDSVKGRFTISRDNAKNTVYLQMSSLKPEDTAVYYCNLWPPRASPGGRVYWGQGTQVTVSS
notes: also called pET28 PelB-2PE14_N32D
B14: P-1926: 3PE42_M31E (VHH)
VHH: QVQLQESGGGLVQPGESLRLSCAVSGSTSSENAMAWYRQAPGKRRELVAGISGGGATNYPDSVKGRFTISRDNAKNTVYLQMSSLKPEDTAVYYCNLWPPRASPGGGVYWGQGTQVTVSS
notes: also called pET28 PelB-3PE42_M42E
B15: P-1913: 2PE14_N32K (VHH)
VHH: QVQLQESGGGLVQPGGSLRLSCAASGSTFSIKAVAWYRQAPGKRRELVAGISGGGVTNYPDSVKGRFTISRDNAKNTVYLQMSSLKPEDTAVYYCNLWPPRASPGGRVYWGQGTQVTVSS
notes: also called pET28 PelB-2PE14_N32K
B16: P-1915: 2PE14_N32P (VHH)
VHH: QVQLQESGGGLVQPGGSLRLSCAASGSTFSIPAVAWYRQAPGKRRELVAGISGGGVTNYPDSVKGRFTISRDNAKNTVYLQMSSLKPEDTAVYYCNLWPPRASPGGRVYWGQGTQVTVSS
notes: also called pET28 PelB-2PE14_N32P
B17: P-1928: 3PE42_M31G (VHH)
VHH: QVQLQESGGGLVQPGESLRLSCAVSGSTSSGNAMAWYRQAPGKRRELVAGISGGGATNYPDSVKGRFTISRDNAKNTVYLQMSSLKPEDTAVYYCNLWPPRASPGGGVYWGQGTQVTVSS
notes: also called pET28 PelB-3PE42_M42G
B18: P-1923: 3PE42 (VHH)
VHH: QVQLQESGGGLVQPGESLRLSCAVSGSTSSMNAMAWYRQAPGKRRELVAGISGGGATNYPDSVKGRFTISRDNAKNTVYLQMSSLKPEDTAVYYCNLWPPRASPGGGVYWGQGTQVTVSS
notes: also called pET28 PelB-3PE42
B19: P-1909: 2PE14_N32F (VHH)
VHH: QVQLQESGGGLVQPGGSLRLSCAASGSTFSIFAVAWYRQAPGKRRELVAGISGGGVTNYPDSVKGRFTISRDNAKNTVYLQMSSLKPEDTAVYYCNLWPPRASPGGRVYWGQGTQVTVSS
notes: also called pET28 PelB-2PE14_N32F
B20: P-1911: 2PE14_N32H (VHH)
VHH: QVQLQESGGGLVQPGGSLRLSCAASGSTFSIHAVAWYRQAPGKRRELVAGISGGGVTNYPDSVKGRFTISRDNAKNTVYLQMSSLKPEDTAVYYCNLWPPRASPGGRVYWGQGTQVTVSS
notes: also called pET28 PelB-2PE14_N32H
B21: P-1927: 3PE42_M31F (VHH)
VHH: QVQLQESGGGLVQPGESLRLSCAVSGSTSSFNAMAWYRQAPGKRRELVAGISGGGATNYPDSVKGRFTISRDNAKNTVYLQMSSLKPEDTAVYYCNLWPPRASPGGGVYWGQGTQVTVSS
notes: also called pET28 PelB-3PE42_M42F
B22: P-1906: 2PE14_N32A (VHH)
VHH: QVQLQESGGGLVQPGGSLRLSCAASGSTFSIAAVAWYRQAPGKRRELVAGISGGGVTNYPDSVKGRFTISRDNAKNTVYLQMSSLKPEDTAVYYCNLWPPRASPGGRVYWGQGTQVTVSS
notes: also called pET28 PelB-2PE14_N32A
B23: P-1929: 3PE42_M31H (VHH)
VHH: QVQLQESGGGLVQPGESLRLSCAVSGSTSSHNAMAWYRQAPGKRRELVAGISGGGATNYPDSVKGRFTISRDNAKNTVYLQMSSLKPEDTAVYYCNLWPPRASPGGGVYWGQGTQVTVSS
notes: also called pET28 PelB-3PE42_M42H
B24: P-1908: 2PE14_N32E (VHH)
VHH: QVQLQESGGGLVQPGGSLRLSCAASGSTFSIEAVAWYRQAPGKRRELVAGISGGGVTNYPDSVKGRFTISRDNAKNTVYLQMSSLKPEDTAVYYCNLWPPRASPGGRVYWGQGTQVTVSS
notes: also called pET28 PelB-2PE14_N32E
B25: P-1918: 2PE14_N32S (VHH)
VHH: QVQLQESGGGLVQPGGSLRLSCAASGSTFSISAVAWYRQAPGKRRELVAGISGGGVTNYPDSVKGRFTISRDNAKNTVYLQMSSLKPEDTAVYYCNLWPPRASPGGRVYWGQGTQVTVSS
notes: also called pET28 PelB-2PE14_N32S
B26: P-1916: 2PE14_N32Q (VHH)
VHH: QVQLQESGGGLVQPGGSLRLSCAASGSTFSIQAVAWYRQAPGKRRELVAGISGGGVTNYPDSVKGRFTISRDNAKNTVYLQMSSLKPEDTAVYYCNLWPPRASPGGRVYWGQGTQVTVSS
notes: also called pET28 PelB-2PE14_N32Q
B27: P-1903: 2PE14_opt2 (Q1D_Q5V_P60A_A74S_K83R_Q108L) (VHH)
VHH: DVQLVESGGGLVQPGGSLRLSCAASGSTFSINAVAWYRQAPGKRRELVAGISGGGVTNYADSVKGRFTISRDNSKNTVYLQMSSLRPEDTAVYYCNLWPPRASPGGRVYWGQGTLVTVSS
notes: also called pET28 PelB-2PE14_opt2 (idem + P60A)
B28: P-1910: 2PE14_N32G (VHH)
VHH: QVQLQESGGGLVQPGGSLRLSCAASGSTFSIGAVAWYRQAPGKRRELVAGISGGGVTNYPDSVKGRFTISRDNAKNTVYLQMSSLKPEDTAVYYCNLWPPRASPGGRVYWGQGTQVTVSS
notes: also called pET28 PelB-2PE14_N32G
B29: P-1905: 2PE14_opt4 (Q1D_Q5V_P60A_A74S_S82N_K83R_Q108L) (VHH)
VHH: DVQLVESGGGLVQPGGSLRLSCAASGSTFSINAVAWYRQAPGKRRELVAGISGGGVTNYADSVKGRFTISRDNSKNTVYLQMNSLRPEDTAVYYCNLWPPRASPGGRVYWGQGTLVTVSS

Here are results for 29 molecules from patent publication US20220332844A1 (ORIONIS BIOSCIENCES, published 2022).

In this experiment the target is T1, recombinant FAP protein (BioLegend), …. Put plainly: BLI (Octet RED96), biotinylated FAP on streptavidin sensors.
A word on the Kd: it is the constant that tells how readily two partners part at equilibrium. As to B1, the Kd worked out at 0.667 nM.
In the case of B2 it was 4.11 nM; in that of B3, 0.653 nM.
In the case of B4 it was 1.25 nM.
In the case of B5 it was 0.0951 nM; in that of B6, 14.5 nM; in that of B7, 0.0889 nM.
Consider B8, for which the Kd came out at 16.8 nM.
In the case of B9 it was 0.165 nM.
With B10, the Kd stood at 100 nM.
In the case of B11 it was 0.221 nM; in that of B12, 0.317 nM; in that of B13, 10.8 nM.
Consider B14, for which the Kd turned out to be 1.85 nM.
The same measure for B15: 2.67 nM; for B16: 1.17 nM; for B17: 4.02 nM.
In the case of B18 it was 0.588 nM; in that of B19, 0.468 nM; in that of B20, 3.69 nM.
The same measure for B21: 1.17 nM.
As for B22, the Kd came to 3.56 nM.
The same measure for B23: 1.12 nM; for B24: 1.09 nM.
In the case of B25 it was 556 nM.
The same measure for B26: 0.386 nM.
As for B27, the Kd is 2.26 nM.
Turning to B28, the Kd came out at 4.62 nM.
With B29, the equilibrium dissociation constant (Kd) is 3.76 nM.
